The test system of this data set is Saccharomyces cerevisiae. The data set can be described thus: transcriptional activation domain activity (GFP:mCherry ratio, weighted mean of sorted bins, harmonized to initial dataset scale) (arbitrary fluorescence ratio units); higher = stronger transcriptional activation. The conditions noted are these: beta-estradiol 1 µM; induction time 4 h. The method, boiled down: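 Activation activity, the read-weighted mean of bin median fluorescence averaged across barcodes, was linearly mapped onto the scale of the initial dataset. It was measured for barcoded protein tiles fused to an estradiol-inducible synthetic transcription factor at URA3 in GFP-reporter yeast diploids. Cultures diluted 1:5 into SC with 1 uM beta-estradiol were held 4 hours at 30 °C, sorted into 8 bins by GFP:mCherry ratio, and barcode-sequenced, and tiles under 50 reads were discarded.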
In the case of “FSTSLTSWSTSLNLLFFYMTWSTLVLSHSPLRIELIGITAIRTVLWLIPSLVF”, the “transcriptional activation domain activity” value amounted to 63100.

For the sequence “MLSLRQCYLVLCTLLIITGVGLASTIFIPVNPFYQLLLMENVAFPWIHFILFC”, the “transcriptional activation domain activity” value was found to be 49900.

Regarding “GVRKDRQQMYFILATNSMIDLGFVVASFVPLVLLWIGGMGYLRVVWRVTLGLG”, the “transcriptional activation domain activity” value was determined as 51400.

Take “DSKLRATALQVRRGGNCPNTVEVLQQLLLSGGGLDTSSSQTQQVSAADAAAVT”: the “transcriptional activation domain activity” value came out at 33300.

In the case of “YYVPLLASPTFWAVTLPLYCVFVGIQVFFVFLEAAGLSLHLVVIFWWLGWWAG”, the “transcriptional activation domain activity” value was 53000.

Consider “MMLLSVRLCIVFFSFMAACFGIPYTPSILFASLFASALGLHILRIFFLVIVHF”, for which the “transcriptional activation domain activity” value amounted to 51300.

Take “WLSDENDGASHINVNKDSSSVLSASSSTWFEPLENIISSASSSSIGSPIEDQF”: the “transcriptional activation domain activity” value was 60800.

In the case of “NHWVFGAFSECFIPGVFLSLHPLTFFLDWTIGFVSDVYTFDAHDPSILELLIF”, the “transcriptional activation domain activity” value is 47000.

As to “SGGEGTRRRASGRGRGRGRGRNGRGARAARGDGEKKEGETTEAAAPTSGETPA”, the “transcriptional activation domain activity” value came to 34800.

For the sequence “LRLLVAWLIPQLEMWLHTNMGVRFLLIEYTPEHLGTVLALREFIGDHMFKVAG”, the “transcriptional activation domain activity” value was 49000.

On to “AAQAPANDGFSEVQHNRGGRGRGGQDQGEGRGGYRGRGRGGRGGGEFRGRGRG”, for which the “transcriptional activation domain activity” value came out at 55800.

As for “FSLGTVLLALCRYLPFGTILQIYVLFLRVESPLCVNGYRAIAFPVVCLWVLLV”, the “transcriptional activation domain activity” value is 52600.

“KEGMGWVDVLFSVCTSIILVQLVFVLGWWLLFLFLSMYHMLTFCIIIFILYKY”: the “transcriptional activation domain activity” value came out at 53300.

Take “RPSGASTPVQPTPEPDNKKRRRGKGGDDAETDGKPVKKAKRGRKPKVVQEPKV”: the “transcriptional activation domain activity” value worked out at 33200.

Turning to “TRVQDEWVSITKLARQAKESAGKEKKGKGGRGVYSQNSKVWEGVVKLLVAIVA”, the “transcriptional activation domain activity” value came out at 46300.

Regarding “LADYMCDYSGSLIGKHFKTLAQIMPFAIQDLVPSSVQAAWLLIGRLVVLLWVT”, the “transcriptional activation domain activity” value came out at 52900.

In the case of “MPSFTLAWPDRAYFYSLLVVSLLSAKFLHLFSHLTALPIFLFLLYFPTFVFLD”, the “transcriptional activation domain activity” value was 76700.

Turning to “EVKDKVWFLEGVTQVLPQDVDEYSGGGGMHMMLDFLGGGLPSMTTTNFSDFSL”, the “transcriptional activation domain activity” value stood at 113000.

For “CRESRGNRGTGEGGAGEQGKGEQGKGEQGKGEQGNRGRGSRETGEGGAGKQGN”, the “transcriptional activation domain activity” value was found to be 29800.

Consider “SSDYSIAQFRFLLKLLLVHGRWNYVRICKYILGTFYKEFMFYLTQLIYQRNTM”, for which the “transcriptional activation domain activity” value came to 39600.

As to “VNDNSTGSTDSTGSTGNKNKKNNNNSDDVLPFISESPFDMNQVTNFFSPGSTG”, the “transcriptional activation domain activity” value came to 38600.

As to “TNSEEDALDAWDLCATKMSLALVQLVQMFEEKELLSSLNVLLRLVTRISTAIP”, the “transcriptional activation domain activity” value came out at 45700.

Regarding “PTLLVALLALLIPHILIFIAKKINTIMTLSALHDRLMIRYYKFLVINVLVFFC”, the “transcriptional activation domain activity” value amounted to 39300.

As for “MSATEATAVPAPAEEVKVVETPAVDPVPEAPAAEESAPATEVKKEERPKSPSL”, the “transcriptional activation domain activity” value came to 54600.

Consider “ASSVRIIAIKYFLTIHRWLPIVFKRGFFSSLLNPVAQRQTELGLLILCMKLCC”, for which the “transcriptional activation domain activity” value came to 48800.

Consider “AQLLQRTWLIHWSLFVFFNHPRGRDYIVDLLFQPNYINSIQMACPWILRYLTA”, for which the “transcriptional activation domain activity” value came to 45100.

In the case of “PKADGDAEPKPKAPRGTKRKAAEETNGAEEGGEAPAAKKAKPASKAKPASKAA”, the “transcriptional activation domain activity” value worked out at 16400.

Turning to “MSEPPRKRAKLACVTCNARRVKCDVTERRPCGNCIAGNVECETRESKRGKHPR”, the “transcriptional activation domain activity” value was 32700.

As to “PSCCLSFFPDFSFFSVFFSLLVYFPFRALYDLLFVDLLLILFLFILIFFHLFL”, the “transcriptional activation domain activity” value was determined as 33000.

For “MALHALLHLLNVYYQGCLPYNVLVITVCTMLYKLFFSKSFYCRFRRFGRPWYL”, the “transcriptional activation domain activity” value stood at 54300.

As to “HSALSRSEVSGTGRKAYAQKGRGKARVGSLRAPHFRGGGRAFPVKPRDHSTKL”, the “transcriptional activation domain activity” value is 17000.

Regarding “AGLTLPRTSDYSLFYYFLLWFTLFGLAMLFIIIHGIDYVSWPRLIPLTDIIYY”, the “transcriptional activation domain activity” value was found to be 17600.

For the sequence “MGFSIDRAIELIWNLLYFFFLSSFLHIFLGLSWDMIICWNYFLSLFILLVFSS”, the “transcriptional activation domain activity” value was 62600.

Regarding “HSLSTIGIDVSHWEPFPLASMQRALAYELHMFCPTLRTVIVWLRRYRYMWRWS”, the “transcriptional activation domain activity” value was 45200.

In the case of “PEKLFGLMHAAISNFPEWETKVGSWFLLGIWHPRFFKAAKEILPYCRRSCISF”, the “transcriptional activation domain activity” value was 64500.

For “DLARSQKFILCSIKHWGSYLFLFFSCRSFNLFFNHSYFSFCLNISFFLCSVFL”, the “transcriptional activation domain activity” value turned out to be 77800.

Consider “ILLMELILHTVYCVAISKWGHWEAFSVYEISLIGYMRLSFIWLKLLVIWRFAR”, for which the “transcriptional activation domain activity” value turned out to be 88100.

With “DTIYIFHALLVVFWVSLMQEPAFPYKLLIPILYITILLIPFTSQVFLPAVPVL”, the “transcriptional activation domain activity” value is 49400.

For the sequence “HHTHHSSSTDWSRAFRKWSVRLLLAIAFPTTYLLGAAMPPKIILMLYPRYSPP”, the “transcriptional activation domain activity” value was 39100.

Take “AFLLFLIYLTFFCWVCFATSATWVWSEILSDNQYTESFMPINDVLLAVLSGII”: the “transcriptional activation domain activity” value came to 38700.

On to “MYYCLFSFLFFLFAFPCVFLLLFTVFFSPYFFFAGFFFYLSLSLLVCVWTIDE”, for which the “transcriptional activation domain activity” value came out at 41600.

For the sequence “LEVTQRGITPANTDYNSNPIDKCLVSDSFNESTTNLLRSLLHCLRILALTYHA”, the “transcriptional activation domain activity” value stood at 36600.

Turning to “ALRREYLTLNGFMPSRINWAIQSSGVDYLHLLIIAMEHLITRFRLSARLAITV”, the “transcriptional activation domain activity” value stood at 53800.

Turning to “MSLAHGHLFNRLQAVGPWDSLCCMGCDLSTLYLAALHSPWRVSWWRFLILGLL”, the “transcriptional activation domain activity” value worked out at 58200.

For the sequence “DPPPHPSCPPGSLIIKMVVYLRRRRLLVTWCEDPSVPEVRCLVVATQSQWVPM”, the “transcriptional activation domain activity” value came to 55300.

Regarding “MNPHFLLPSIVSFQFSCFFGCLVVYLSVFFSRFIFILTFPSIYFSSTVFFFVS”, the “transcriptional activation domain activity” value was 37100.

Consider “YIATGRGFATTRISFSILYSRFAGPSIYMGMRNLLLLLYATIAIWMPHLIYFW”, for which the “transcriptional activation domain activity” value came out at 48100.

As to “IFVYLRIKKCCCLNKSSLLLDVRLIHKNRDTVIIFARGLVGIFKKLSLRVVEC”, the “transcriptional activation domain activity” value was 51200.

Take “FPYFPYFPYFPYFLYFLFSLFSLLSLLPLLLYFLHPFLFLTCFWFSKLACFLS”: the “transcriptional activation domain activity” value is 51400.

As for “SSAKDIEGDGDGADVIRNNRLAKRSTAGVKVKKHVAQIIKMRKVTPRSIAYIA”, the “transcriptional activation domain activity” value was found to be 40000.

In the case of “PLEYFDIKALSALIVFDEFPNYIIGLLLQSYPELVHGTFMPYIECMLFTMNPL”, the “transcriptional activation domain activity” value amounted to 61800.

As to “KCSKVEPWVINVAAVFPSVFLLGFVENFFWFRRMMLGKGCLRFGTVCWALLFI”, the “transcriptional activation domain activity” value was determined as 65800.

Take “DKKNVDINEFLLDESVSNLFTTRQIDLFKKNVNLYSPLFQNQKDAVSSTSLTP”: the “transcriptional activation domain activity” value came to 81800.

For the sequence “VALATWVIVIAVLLPTIFLIGFIESYCWFRRMMLGRSALRLGTICWCVMSLWF”, the “transcriptional activation domain activity” value is 65100.

On to “SKEKLSAVENSHAIKLEIILEGIGSIMLSHPNDMQLLSRVVRLLVRVAIQFRR”, for which the “transcriptional activation domain activity” value amounted to 56500.

On to “VRQQLKIRLIKLFRRFYPYVNFAYYASGLVYNVLYLFNKTKYYSPWLHLIGVQ”, for which the “transcriptional activation domain activity” value was determined as 52200.

Regarding “FPRLTDMVCELEDYLRPLAEHARAADVELVEIAVVSVYVNILNFSWKARCVFV”, the “transcriptional activation domain activity” value is 43600.

In the case of “AITRLSLVIDALKEGMRYDCDHVLETYQYDVLLVAGYFYLAAILDKSGVDPTA”, the “transcriptional activation domain activity” value was determined as 52000.

Turning to “VLGELSRFAGGPEETPIHIGTLYYLNVHTAPPYFWQRCQALLYRNTLLLSWIA”, the “transcriptional activation domain activity” value came out at 52200.

Regarding “RGGRRGRGERKREKEEKKRRKRKGKEKRATTEEGGRARRKEKKAVCGRRWSGG”, the “transcriptional activation domain activity” value worked out at 46100.

For the sequence “EEGDMDVDEEEGTPTKKRKLSKEEKKALKKEKKKAAKDAAAAVSDYWIVCDQS”, the “transcriptional activation domain activity” value was found to be 45200.

On to “ILGRLCRVRVLGFNDVLVRVDIILCLHLDTPAEAVFRVQRLVSLMGMLALQVF”, for which the “transcriptional activation domain activity” value was 41300.

As to “FWGLRSLPSSPFICLFLFYCGLVLMHSGLYLGLFLFLLFLSLSVFLFLSHFSV”, the “transcriptional activation domain activity” value turned out to be 30100.

As for “HSGVLRDVHVVFQDRSFCARLAEQIGRRLRMIYSNWRETCCMEMLITLSLRLF”, the “transcriptional activation domain activity” value amounted to 73200.

“MPEPAAAAAPRQRAFRTKSRLGCLQCKRRHVKCDERRPRCGRCVAAGSDCSLQ”: the “transcriptional activation domain activity” value stood at 17400.

Consider “MSSSEPLTEQTAALSVAEGDADGNVPIGPDGKPLSKSAIKKLQKEKEKAEKAA”, for which the “transcriptional activation domain activity” value turned out to be 39500.

As for “ELLVLLDQHWNYSRLRYPICFLSRTASEMLTFVRSMMEWLGGTVSKEDVGEDG”, the “transcriptional activation domain activity” value was 25800.

Regarding “ASSASTGKGEEEEEDGEEKVRGKGKGQGQGQSQGQGQGQGQEAQERRDDEASA”, the “transcriptional activation domain activity” value was 31700.

For “MSSPKRITVLISGSGTNLQALMDAAGSSRLPNAQITHVISSRSAVKGLERAST”, the “transcriptional activation domain activity” value turned out to be 53800.

Consider “GTEYEIGRPSDEEVTITRMLDKVLRRSDAVDKESLCIVAGQRVWHLRLTLHCL”, for which the “transcriptional activation domain activity” value came to 68500.

As for “RHLGSLAYLGNTAVGEFGWGYKMIGGLYAQYLWRSVYWSKQVSLRTRINLSID”, the “transcriptional activation domain activity” value stood at 54500.

In the case of “MLLTLQSYFFFLLMFLVNSVSLLSFFSIFVFIIFLRYGCRMLWWHLHCIYPIF”, the “transcriptional activation domain activity” value came to 38000.

As to “LCRVQESILQTFGMTGLLCMQRGINFTIYCVLTCTVLHLVAITSPDPDLNRDA”, the “transcriptional activation domain activity” value came to 40200.

For the sequence “DREKRSSGHRNGRRHRGHRSGRKQRRSRSRSRGDRPDSPVRAKEGEGGAKDRK”, the “transcriptional activation domain activity” value was < 6570.

For the origin of these results see the supplement of paper PMC12636428.
